# Experiment: soluble on expression in E. coli; label from the status in PepcDB or PDB records
row,Sequence,soluble on expression in E. coli
1,MSFEEKTFKWLMNQKFYHGYLPREDLPYVLKKKGDFIFRVTERTVGKEQKKDIVLSIAWPTESVAMIDTKDIKNYLIERSANSVWLDLKISFHSIDALYNHYRKNELVHPNLRIKLGRPICLFFWEFKHSQINLIKKVGKGAYGEVFKGTVTRGNKTFNGAIKAMRKDLDAGNEKMKEVMAEARLMRSLNHPNIVRCRGIAVLEQPVYIVIEFINGGGLDSYLKKNSQTLTMDQKNRMAISAAWGIEFMHSHDIIHRDIAARNCLYDNKNLVKLSDFGLSRKGSVYRMKKAMKMPTKWLAPESLTTFTFSGASDVYTFGVLLYEIYTCQEPYLAVKAGEAKRYILSGAFPNFTKQAPPELNEIVKKSIYQLDPAKRDTMKVIVKKLETWLDVELVLDENEKPDIDPESNRFNGNMPIRVDSSTKKMRNDTVCIPPPETATVALPNSLPPITVSARSKNSRKSTLKRKKKKTSKDSSMTTTTTNTNESEPPADGQVISSETMSVANKMVSDAKGGSPEMLTPSLEELKPSSQENETFLNEKNSTAKN,not soluble
2,MSFRVSASSSVKPEKDIRIGLLGASGYTGAEIVRLLANHPHFQVTLMTADRKAGQSMESVFPHLRAQKLPTLVSVKDADFSTVDAVFCCLPHGTTQEIIKELPTALKIVDLSADFRLRNIAEYEEWYGQPHKAVELQKEVVYGLTEILREDIKKARLVANPGCYPTTIQLPLVPLLKANLIKHENIIIDAKSGVSGAGRGAKEANLYSEIAEGISSYGVTRHRHVPEIEQGLSDVAQSKVTVSFTPHLMPMIRGMQSTIYVEMAPGVRTEDLHQQLKTSYEDEEFVKVLDEGVVPRTHNVRGSNYCHMSVFPDRIPGRAIIISVIDNLVKGASGQALQNLNIMLGYPETTGLLHQPLFP,soluble
3,MSFSGVKVSPECLEAFQELKLGKSLRYVVFKMNDTKTEIVVEKKSTDKDFDTFLGDLPEKDCRYAIYDFEFNLGEGVRNKIIFISWSPDVAPIKSKMVYSSSKDTLRRAFTGIGTDIQATDFSEVAYETVLEKVTRK,soluble
4,MSFTTISVIGLGYIGLPTAAAFASRQKQVIGVDINQHAVDIINRGEIHIVEPALGNVVKMAVEGGFLRATTTPVEADAYLIAVPTPFKGDHDPDMAYVEAAAKSIAPVLKKGALVILESTSPVGATEQMAGWLAGMRTDLTFPQQAGEQADVNIAYCPERVLPGQVMVELIKNDRVIGGMTPVCSARASALYKIFLEGECVVTNSRTAEMCKLTENSFRDVNIAFANELSLICAEQGINVWELIRLANRHPRVNILQPGPGVGGHCIAVDPWFIVAQNPQQARLIRTAREVNDGKPHWVVDQVKAAVTDCLAATDKRASEVKIACFGLAFKPNIDDLRESPAMGIAQSIARWHSGETLVVEPNIRQLPKKLDGLCTLAKLDAALAAADVLVMLVDHDEFKAIPGDAVHQRYVVDTKGVWR,soluble
5,MSFVVANTEFVSGAAGNLARLGSMISAANSAAAAQTTAVAAAGADEVSAAVAALFGAHGQTYQVLSAQAAAFHSQFVQALSGGAQAYAAAEATNFGPLQPLFDVINAPTLALLNRPLIGNGADGTAANPNGQAGGLLIGNGGNGFSPAAGPGGNGGAAGLLGHGGNGGVGALGANGGAGGTGGWLFGNGGAGGNSGGGGGAGGIGGSAVLFGAGGAGGISPNGMGAGGSGGNGGLFFGNGGAGASSFLGGGGAGGRAFLFGDGGAGGAALSAGSAGRGGDAGFFYGNGGAGGSGAGGASSAHGGAGGQAGLFGNGGEGGDGGALGGNGGNGGNAQLIGNGGDGGDGGGAGAPGLGGRGGLLLGLPGANGT,not soluble
6,MSGAEQKVAYSLVSSGSLMSVNPGMARWIKELFCHNERVVLTGDWKHGFLSLTAVGATNVGSIRIHFN,not soluble
7,MSGDIPLHQLQPNMNSFSVTVIVLDPGIHRRTQTGTIISMKVADASGSINASIMNPEFNETFKPGDILKFRGAYTSIYQGGLTLSVGKSGECKKVGEFMMVFSETPDISMMPLPAGVMDRRNERMQSPAGRYSRPSN,not soluble
8,MSGEVGSNECLVSTNEVQEDSPAVTESSSANGSSPVRRGRGRPPKGTKVPKVKPAPKPYSGAPRGRPRKSDQVAKSPVAKSPVASSSADASPKRSRGAPKSYAEDVAATKPAKTDVATPALAALTGEKKGRGRPKKN,soluble
9,MSGGEAQGKRKQWQRWLSPRYVWRRLRHNIGPKLVSLGAALVLWSVSTGDQRAQVQQSYDVPITVRDTTGASGSDERRAVSDLNPETVRVTLTGRPERLNELRPSNIEALLDVTGVPEGSFNRPVQIVAPSNTVLSKQVPERVQGFVDSELSRTLTVTLGVASPAENSLPRFEVRPSEVQATAPSRVLNQVTRVVTSPVDLDPGEEREAPLIALDSRGRVVEPVTLHPASVSVQRLDTGTLPVKTLPVVLGAPPASLRVQSQTLQPRTVRVVAAPELLGRLREVSGQVDYRVGSSTLPVTLRLPDGAQALETVSVSLVVERIKAPDPGAGAPTQQKSGASSSSGGNLEHHHHHH,soluble
10,MSGGGIIPRGGGYSKRRGRGRRGGGNGGFRDDIRDNQSDRHLSPDRRSNHSEDRHEHRFNNYRQQNRPNSRTPSPSNHNQVQTYRNNPFDARPALSSNDRDQGRNRFSPPSFRRDGRDSDRNGYHEKEEEPTRGSRNDLRTILKPTDKEAARTWKLRIADAEEAIRRAEFQLRRAKMDHEALLEAYKEYTETTCPQELLKPNW,not soluble
11,MSGNYDKNNINNFIDKNDEHDMSDILHKINNEEKKYEEIKSYSECLELLYKTHALKLGLDNPKKLNESFGHPCDKYKTIHIAGTNGKGSVCYKIYTCLKIKKFKVGLFSSPHIFSLRERIIVNDEPISEKELIHLVNEVLNKAKKLYINPSFFEIITLVAFLHFLNKKVDYAIIETGIGGRLDATNILTKPEVIVITSIGYDHLNILGDNLPIICNEKIGIFKKDANVVIGPSVAIYKNVFDKAKELNCTIHTVVPEPRGERYNEENSRIALRTLEILNISIDYFLKSIIPIKPPLRIQYLATEQIQHIKKKFSPDNLEHNVQYPLAVILDVGHNETAIDRLCTDINYFHKGQNIRICISITKPRNLSVFHPFIAQFGDTLKDIFYLPSLNERTYDFEEIVEMLNNEEEIKNEIKELILSSSKKVGKWLAHEKQGNINEEDALKLYKRGCIPLIIKNAFLECCKDNSILLVCGTFFVFDEVLNVFDIHSDMQDTIFMNEPS,not soluble
12,MSGPVRTRRILEELGPTYIKLGQLLSMRRDLVPLEYAAEFSKLQDDAPSFGFEEVELIIREELGLPVEDLFESFEKKPLACASIGQVHRAKLKNGDDVVVKVQRPGIKEVIESDLDIMYSLSRLLTEHIPEARLYRPVELVDELSRSILAEIDYSQEGWNTDRFAENFKDSEQIHIPKVYWDYTGTRVLTLEYIEGIKGGRVDLLEKLEHHHHHH,not soluble
13,MSGREFLQKLLDGERVEWKALGEIIQLEKGRQLNKDLLSSSGRYPAYNGGMSYSGFTDSYNYSENKTIISQGGASAGFVNFVTTKFYANAHCYVVLPDTEVVDNRYIYHFLKLNEERLTSCQHGAGIPALRASEITSLKIPIPCPDNPKKSLAIQAEIVRILDAFTELTAELTAELTARKKQYAYYRDRLLTFTTPPYGHPSKGGELFSLFGHPSEGGELFTPYGHSVEERELNSPSLKGWQAQPDGVVPVEWKTLGEVGHFIRGSGIQKSDFKASGVGCIHYGQIHTHYGTWTTETKSFIDPEFANRLKKAKPGDLVIATTSEDDDAVAKAVAWIGTEDVAVSTDAYIFRHTANPKYMSYFFQTDMFQEQKKPYITGTKVRRISGDNLAKILIPIPPLAEQERIVAILDQFDALTNSLTEGLPREIELRQKQYAYYRDLLFSFPKASFGGVPEGRDQFPSFGGVPEGRGGLNALEHHHHHH,not soluble
14,MSGWNAYIDTMTAAAPSIKRCAIVGAADGSVWARTEADNVFKASEEELKTFVALFNDVTQVPAKGADIEGVHYVVPRTEESLIFGKKENTGFFAVKTKSAVLIAVYEGPNEVAAQVRKAVESMQTYLNNAGY,not soluble
